Target: the molecule itself
Assay: SEC-MALS; Superdex 200 Increase 10/300 GL, 20 mM Tris-HCl pH 8.0, 150 mM NaCl, 0.4 mL/min, 20°C; repeated under various conditions with the same results

B1: isocitrate lyase from Mycobacterium tuberculosis (tbICL) (enzyme)
chain: MSVVGTPKSAEQIQQEWDTNPRWKDVTRTYSAEDVVALQGSVVEEHTLARRGAEVLWEQLHDLEWVNALGALTGNMAVQQVRAGLKAIYLSGWQVAGDANLSGHTYPDQSLYPANSVPQVVRRINNALQRADQIAKIEGDTSVENWLAPIVADGEAGFGGALNVYELQKALIAAGVAGSHWEDQLASEKKCGHLGGKVLIPTQQHIRTLTSARLAADVADVPTVVIARTDAEAATLITSDVDERDQPFITGERTREGFYRTKNGIEPCIARAKAYAPFADLIWMETGTPDLEAARQFSEAVKAEYPDQMLAYNCSPSFNWKKHLDDATIAKFQKELAAMGFKFQFITLAGFHALNYSMFDLAYGYAQNQMSAYVELQEREFAAEERGYTATKHQREVGAGYFDRIATTVDPNSSTTALTGSTEEGQFH
notes: Tetramer in solution by SEC-MALS; dimer (subunits A and B) in the asymmetric unit, tetramer by twofold crystal symmetry; Theoretical monomer mass 47.08 kDa including the C-terminal His-tag; also called tbICL1; isocitrate lyase isoform 1; not shown: His-tag, C-terminal, kept
**Q.** For B1, which “stoichiometry N” value is on record?
**A.** 4

— article PMC8099091, “Heterogeneous multimeric structure of isocitrate lyase in complex with succinate and itaconate provides novel insights into its inhibitory mechanism” (PLoS ONE, 2021)
